What all share (settings): both partners purified
Assay [1] deals with T1, clathrin heavy chain minimal ankle region (CHC^ankle, aa 358–574) (human, UniProt Q00610 358-574).
T1 construct: modified pGEX vector with a TEV-cleavable GST tag; also called CHC ankle region protein; WT CHC
T1 sequence (looked up): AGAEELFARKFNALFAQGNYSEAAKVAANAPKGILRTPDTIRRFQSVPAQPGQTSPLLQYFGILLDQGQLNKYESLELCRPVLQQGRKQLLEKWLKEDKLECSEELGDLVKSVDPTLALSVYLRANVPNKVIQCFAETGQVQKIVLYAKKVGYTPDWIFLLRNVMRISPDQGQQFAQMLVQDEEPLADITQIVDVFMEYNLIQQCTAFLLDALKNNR
Kind of assay: fluorescence polarisation; direct binding, FAM-labelled TACC3 peptides and CHC protein; 20 mM HEPES pH 7.5, 150 mM NaCl, 5 mM DTT, 0.05% Tween-20; triplicate; one-site specific binding model.

Assay [2] deals with T2, biotinylated Avi-tagged ankle region of clathrin (aa 358–574) (human, UniProt Q00610 358-574, biotin).
T2 construct: held on a streptavidin chip (SPR) or detected with an anti-biotin antibody (peptide arrays)
T2 sequence (looked up): T1 sequence (looked up)
Put plainly: peptide or protein array; peptides synthesised on cellulose membrane; 1 μM biotinylated clathrin 358–574 in 20 mM HEPES pH 7.5, 150 mM NaCl, 5 mM DTT, 0.05% Tween-20, 1 h room temperature; anti-biotin HRP.

Assay [3] deals with T1, clathrin heavy chain minimal ankle …. Kind of assay: NMR titration; CHC titrated into ~140 μM 15N-labelled GB1-TACC3 or GB1-pTACC3 to a 1:5 CHC:TACC3 molar ratio; loss of 1H–15N HSQC peak intensity.

One may read the Kd as the equilibrium constant for the complex coming apart. High values mean a looser complex, low ones a tighter complex.

Positions of bridges follow the written chain, without caps; N, C: chain ends. Non-standard residues stand in square brackets, D forms with d. Primed or numbered codes have the meaning given here. No end group written: not given here. FAM″ = 5(6)-carboxyfluorescein label; pS = N[C@@H](COP(=O)(O)O)C(=O)O; FAM = 5(6)-carboxyfluorescein; S5 = C=CCCC[C@](C)(N)C(=O)O

B1: negative control SP TACC3 (F563A & L566A) (peptide)
chain: {FAM″}-KESALRK[S5]ELL[S5]EADPAFRDS-NH2
modifications: staple 8-12
For the molecule B1, in assay [1], the Kd was around 750 µM.

B2: array peptide TACC3 550–568 S558D Y560L K562I L567F (peptide, UniProt Q9Y6A5 550-568, looked up)
peptide: KESALRKQDLLLIFDPLFR
modifications: also: 8-amino-3,6-dioxaoctanoic acid spacer to cellulose membrane, end not given here
notes: human TACC3 aa 550-568 with S558D, Y560L, K562I, L567F; source: synthesised on cellulose membrane (MultiPep 2)
On to B2, for which the binding result in assay [2] is recorded as “binds”.

B3: array peptide TACC3 550–568 S558D Y560W K562L (peptide, UniProt Q9Y6A5 550-568, looked up)
peptide: KESALRKQDLWLLFDPLLR
modifications: also: 8-amino-3,6-dioxaoctanoic acid spacer to cellulose membrane, end not given here
notes: human TACC3 aa 550-568 with S558D, Y560W, K562L; source: synthesised on cellulose membrane (MultiPep 2)
Take B3: the binding result in assay [2] was “binds”.

B4: array peptide TACC3 550–568 S558D Y560L K562Q L567F (peptide, UniProt Q9Y6A5 550-568, looked up)
peptide: KESALRKQDLLLQFDPLFR
modifications: also: 8-amino-3,6-dioxaoctanoic acid spacer to cellulose membrane, end not given here
notes: human TACC3 aa 550-568 with S558D, Y560L, K562Q, L567F; source: synthesised on cellulose membrane (MultiPep 2)
Consider B4, for which the binding result in assay [2] is reported as “binds”.

B5: array peptide TACC3 550–568 S558D Y560L K562E L567F (peptide, UniProt Q9Y6A5 550-568, looked up)
peptide: KESALRKQDLLLEFDPLFR
modifications: also: 8-amino-3,6-dioxaoctanoic acid spacer to cellulose membrane, end not given here
notes: human TACC3 aa 550-568 with S558D, Y560L, K562E, L567F; source: synthesised on cellulose membrane (MultiPep 2)
In the case of B5, in assay [2], the binding result is listed as “binds”.

B6: array peptide TACC3 550–568 S558D Y560W K562L L567F (peptide, UniProt Q9Y6A5 550-568, looked up)
peptide: KESALRKQDLWLLFDPLFR
modifications: also: 8-amino-3,6-dioxaoctanoic acid spacer to cellulose membrane, end not given here
notes: human TACC3 aa 550-568 with S558D, Y560W, K562L, L567F; source: synthesised on cellulose membrane (MultiPep 2)
B6: in assay [2], the binding result is recorded as “binds”.

B7: array peptide TACC3 550–568 S558D Y560L K562L (peptide, UniProt Q9Y6A5 550-568, looked up)
peptide: KESALRKQDLLLLFDPLLR
modifications: also: 8-amino-3,6-dioxaoctanoic acid spacer to cellulose membrane, end not given here
notes: human TACC3 aa 550-568 with S558D, Y560L, K562L; source: synthesised on cellulose membrane (MultiPep 2)
As to B7, the binding result in assay [2] was “binds”.

B8: array peptide TACC3 550–568 S558D Y560L K562Q (peptide, UniProt Q9Y6A5 550-568, looked up)
peptide: KESALRKQDLLLQFDPLLR
modifications: also: 8-amino-3,6-dioxaoctanoic acid spacer to cellulose membrane, end not given here
notes: human TACC3 aa 550-568 with S558D, Y560L, K562Q; source: synthesised on cellulose membrane (MultiPep 2)
With B8, in assay [2], the binding result is given as “binds”.

B9: FAM-TACC3 CID K562A peptide, unphosphorylated (peptide, UniProt Q9Y6A5 549-570, looked up)
peptide: {FAM}-FKESALRKQSLYLAFDPLLRDS
notes: human TACC3 CID, aa 549-570, K562A, no phosphate; also called K562A^TACC3; source: synthetic peptide, bought: PPR, Alta Bioscience or Biomatik Corporation
With B9, in assay [1], the Kd worked out at 146 µM.

B10: FAM-pTACC3 CID R555A peptide (peptide, UniProt Q9Y6A5 549-570, looked up)
peptide: {FAM}-FKESALAKQ[pS]LYLKFDPLLRDS
notes: human TACC3 CID, aa 549-570, pS558, R555A; also called R555A^pTACC3; source: synthetic peptide, bought: PPR, Alta Bioscience or Biomatik Corporation
On to B10, for which binding in assay [1] was characterised by a dissociation constant (Kd) of 52 µM.

B11: FAM-TACC3 CID S558E peptide (peptide, UniProt Q9Y6A5 549-570, looked up)
peptide: {FAM}-FKESALRKQELYLKFDPLLRDS
notes: human TACC3 CID, aa 549-570, S558E; also called phosphomimetic glutamic acid variant; S558E TACC3^CID; source: synthetic peptide, bought: PPR, Alta Bioscience or Biomatik Corporation
For B11, the Kd in assay [1] came to 314 µM.

B12: FAM-pTACC3 CID K562A peptide (peptide, UniProt Q9Y6A5 549-570, looked up)
peptide: {FAM}-FKESALRKQ[pS]LYLAFDPLLRDS
notes: human TACC3 CID, aa 549-570, pS558, K562A; also called K562A^pTACC3; source: synthetic peptide, bought: PPR, Alta Bioscience or Biomatik Corporation
In turn, B12 displayed a dissociation constant Kd in assay [1] of 23 µM.

B13: FAM-pTACC3 CID R555A K562A peptide (peptide, UniProt Q9Y6A5 549-570, looked up)
peptide: {FAM}-FKESALAKQ[pS]LYLAFDPLLRDS
notes: human TACC3 CID, aa 549-570, pS558, R555A and K562A; also called R555A K562A^pTACC3; source: synthetic peptide, bought: PPR, Alta Bioscience or Biomatik Corporation
The molecule B13 displayed a Kd in assay [1] of 26 µM.

B14: array peptide TACC3 550–568 S558D Y560L K562L L567F (peptide, UniProt Q9Y6A5 550-568, looked up)
peptide: KESALRKQDLLLLFDPLFR
modifications: also: 8-amino-3,6-dioxaoctanoic acid spacer to cellulose membrane, end not given here
notes: human TACC3 aa 550-568 with S558D, Y560L, K562L, L567F; source: synthesised on cellulose membrane (MultiPep 2)
As for B14, in assay [2], the binding result is reported as “binds”.

B15: array peptide TACC3 550–568 S558D Y560I K562L (peptide, UniProt Q9Y6A5 550-568, looked up)
peptide: KESALRKQDLILLFDPLLR
modifications: also: 8-amino-3,6-dioxaoctanoic acid spacer to cellulose membrane, end not given here
notes: human TACC3 aa 550-568 with S558D, Y560I, K562L; source: synthesised on cellulose membrane (MultiPep 2)
For the molecule B15, in assay [2], the binding result is reported as “binds”.

B16: array peptide TACC3 550–568 S558D Y560L K562E (peptide, UniProt Q9Y6A5 550-568, looked up)
peptide: KESALRKQDLLLEFDPLLR
modifications: also: 8-amino-3,6-dioxaoctanoic acid spacer to cellulose membrane, end not given here
notes: human TACC3 aa 550-568 with S558D, Y560L, K562E; source: synthesised on cellulose membrane (MultiPep 2)
B16: in assay [2], the binding result is “binds”.

B17: GB1-pTACC3 (domain or fragment, human, UniProt Q9Y6A5 545-573, looked up)
chain: GTSSFKESALRKQ[pS]LYLKFDPLLRDSPGR
modifications: also: 15N/13C labelled
notes: human TACC3 aa 545-573 (the results say aa 546-573), pS558, fused to the small protein GB1; also called phosphorylated GB1-TACC3 CID; source: E. coli BL21 (DE3) RIL, purified; phosphorylated in situ with Aurora-A (122–403) and TPX2 (1–43); not shown: His-NusA, N-terminal, cleaved
With B17, the binding result in assay [3] was “binds”.

B18: array peptide TACC3 550–568 S558D Y560I K562L L567F (peptide, UniProt Q9Y6A5 550-568, looked up)
peptide: KESALRKQDLILLFDPLFR
modifications: also: 8-amino-3,6-dioxaoctanoic acid spacer to cellulose membrane, end not given here
notes: human TACC3 aa 550-568 with S558D, Y560I, K562L, L567F; source: synthesised on cellulose membrane (MultiPep 2)
Turning to B18, in assay [2], the binding result is on record as “binds”.

B19: array peptide TACC3 550–568 S558D Y560L K562I (peptide, UniProt Q9Y6A5 550-568, looked up)
peptide: KESALRKQDLLLIFDPLLR
modifications: also: 8-amino-3,6-dioxaoctanoic acid spacer to cellulose membrane, end not given here
notes: human TACC3 aa 550-568 with S558D, Y560L, K562I; source: synthesised on cellulose membrane (MultiPep 2)
Regarding B19, the binding result in assay [2] is “binds”.

The values above are taken from PMC12204359, “Mechanistic Design of Cell-Penetrating Disruptors for a Phospho-Dependent Interaction” (Research Square, 2025).
